In paper PMC11788743, “Biochemical characterization of the human ubiquitous glucose‐6‐phosphatase in neutrophil granulocytes” (FEBS Open Bio, 2024):

Legend:
[1] = substrate: O=C(O)[C@H](O)[C@@H](O)[C@H](O)[C@H](O)COP(=O)(O)O; assay: inorganic phosphate release (molybdate), Michaelis-Menten fit, GFP control subtracted; type: biochemical, Homo sapiens; conditions: 50 mM Mops pH 6.5, 25 mM CaCl2, 0.5 mM MnCl2, 2.5 mM EDTA, 37 °C, alamethicin, apparent, cell lysate
From the text: (§1) inorganic phosphate release (molybdate), Michaelis-Menten fit, GFP control subtracted on human recombinant G6PC3 (glucose-6-phosphatase-β)

[2] = substrate: O=P(O)(O)OC[C@@H](O)[C@@H](O)[C@H](O)[C@@H](O)CO; assay: as above; type: biochemical, Homo sapiens; conditions: 50 mM Mops pH 6.5, 25 mM CaCl2, 0.5 mM MnCl2, 2.5 mM EDTA, 37 °C, alamethicin, apparent, cell lysate
From the text: as §1

B1: human recombinant G6PC3 (glucose-6-phosphatase-β) (Homo sapiens) (protein)
chain: MESTLGAGIVIAEALQNQLAWLENVWLWITFLGDPKILFLFYFPAAYYASRRVGIAVLWISLITEWLNLIFKWFLFGDRPFWWVHESGYYSQAPAQVHQFPSSCETGPGSPSGHCMITGAALWPIMTALSSQVATRARSRWVRVMPSLAYCTFLLAVGLSRIFILAHFPHQVLAGLITGAVLGWLMTPRVPMERELSFYGLTALALMLGTSLIYWTLFTLGLDLSWSISLAFKWCERPEWIHVDSRPFASLSRDSGAALGLGIALHSPCYAQVRRAQLGNGQKIACLVLAMGLLGPLDWLGHPPQISLFYIFNFLKYTLWPCLVLALVPWAVHMFSAQEAPPIHSS
notes: full-length G6PC3 cDNA (universal human cDNA) in pEGFP-N1 (XhoI/EcoRI), GFP-G6PC3 fusion, overexpressed in HEK293T; alamethicin-permeabilized cell lysate
[1]
  Km: 8.22 ± 1.4 mM
  Vmax: 0.19 µmol/min/mg
[2]
  Km: 5.11 ± 0.7 mM
  Vmax: 1.66 µmol/min/mg
